Test results: patent US20190389955A1 (HEMOGENYX PHARMACEUTICALS, published 2019)

T1: human FLT3/FLK2 receptor protein (human, UniProt P36888 27-993)
T1 construct: whole, on cells; Cell-surface target in the flow cytometry experiments (REH cells and SP2/0-Hu-FLT3 cells); also called CD135; Hu-FLT3
T1 sequence (looked up): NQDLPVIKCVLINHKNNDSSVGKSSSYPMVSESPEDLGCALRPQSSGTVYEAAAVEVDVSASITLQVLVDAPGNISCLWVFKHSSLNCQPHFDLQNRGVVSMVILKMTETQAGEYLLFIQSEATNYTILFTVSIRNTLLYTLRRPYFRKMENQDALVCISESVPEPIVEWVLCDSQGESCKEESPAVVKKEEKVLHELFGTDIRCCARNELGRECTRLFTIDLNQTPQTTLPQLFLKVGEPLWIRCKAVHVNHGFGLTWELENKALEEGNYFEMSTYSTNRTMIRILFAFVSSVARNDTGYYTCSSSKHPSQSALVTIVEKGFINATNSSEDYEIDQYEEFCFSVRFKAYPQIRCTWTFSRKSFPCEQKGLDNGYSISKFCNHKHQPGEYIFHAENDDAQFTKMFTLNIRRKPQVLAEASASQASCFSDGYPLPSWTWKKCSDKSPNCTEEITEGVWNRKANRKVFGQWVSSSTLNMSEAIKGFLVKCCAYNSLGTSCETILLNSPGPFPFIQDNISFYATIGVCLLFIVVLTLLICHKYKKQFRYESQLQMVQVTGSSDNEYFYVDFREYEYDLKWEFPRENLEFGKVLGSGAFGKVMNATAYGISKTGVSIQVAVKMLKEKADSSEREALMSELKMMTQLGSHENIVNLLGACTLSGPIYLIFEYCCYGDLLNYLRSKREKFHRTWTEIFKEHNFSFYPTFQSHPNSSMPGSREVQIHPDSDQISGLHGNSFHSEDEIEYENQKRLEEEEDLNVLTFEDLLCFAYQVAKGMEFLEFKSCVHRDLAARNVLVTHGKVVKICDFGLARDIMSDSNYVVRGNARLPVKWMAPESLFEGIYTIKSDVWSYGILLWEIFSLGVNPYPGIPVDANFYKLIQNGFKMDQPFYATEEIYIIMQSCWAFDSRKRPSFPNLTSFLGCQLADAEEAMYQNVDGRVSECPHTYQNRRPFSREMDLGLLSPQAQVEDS

T2: FLT3/FLK2 antigen (as used for Table 6) (human, UniProt P36888 27-541, limits assumed)
T2 construct: also called human FLT3/FLK2 receptor protein
T2 sequence (looked up): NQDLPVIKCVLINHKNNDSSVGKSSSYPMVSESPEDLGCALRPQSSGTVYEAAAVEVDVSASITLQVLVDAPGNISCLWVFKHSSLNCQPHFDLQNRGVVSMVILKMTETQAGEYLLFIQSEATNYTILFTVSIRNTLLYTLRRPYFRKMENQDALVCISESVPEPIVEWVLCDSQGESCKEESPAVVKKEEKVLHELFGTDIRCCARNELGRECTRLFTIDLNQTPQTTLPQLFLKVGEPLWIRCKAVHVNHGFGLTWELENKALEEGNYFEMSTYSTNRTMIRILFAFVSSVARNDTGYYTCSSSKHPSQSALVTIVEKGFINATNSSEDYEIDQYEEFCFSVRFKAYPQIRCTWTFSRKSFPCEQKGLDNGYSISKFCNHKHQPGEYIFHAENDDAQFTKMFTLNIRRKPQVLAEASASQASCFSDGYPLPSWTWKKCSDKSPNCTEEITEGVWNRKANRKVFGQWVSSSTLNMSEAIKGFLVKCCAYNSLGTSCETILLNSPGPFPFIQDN


Experiments:
[1] = target: T1, human FLT3/FLK2 receptor protein; assay: flow cytometry, hybridoma supernatant on REH cells; same table: unstained 1292, secondary Ab alone 6905 (0.78%), isotype 13307 (12%)
[2] = target: T1, human FLT3/FLK2 receptor protein; assay: flow cytometry titration on REH cells; axis printed 'mg/ml', the text gives ng/ml
Method: (§1) Specificity of the monoclonal antibodies was determined by evaluating their affinity to the FLT3/FLK2 antigen. To define affinity of the anti-human FLT3/FLK2 antibodies, an Effective Concentration (EC) curve was built using flow cytometry. Nine monoclonal antibody clones were used to stain human REH cells that endogenously express human FLT3/FLK2. The concentration of the clones ranged from 1 ng/ml (6.25 pM) to 10,000 ng/ml (62.5 nM). […] The sequences of the clones are shown below.

[3] = target: T1, human FLT3/FLK2 receptor protein; assay: flow cytometry, purified antibody on SP2/0 cells expressing human FLT3/FLK2; same table: unstained 6063, secondary Ab 9522, isotype 11518
[4] = target: T1, human FLT3/FLK2 receptor protein; assay: flow cytometry titration on REH cells, MFI against antibody concentration; the box prints no unit, the axis is printed 'mg/ml', the text gives ng/ml
Method: as §1

[5] = target: T1, human FLT3/FLK2 receptor protein; assay: flow cytometry titration on REH cells, MFI against antibody concentration; the box prints no unit, the axis is printed 'mg/ml', the text gives ng/ml; clone taken from the legend paragraph 65 (FIG. 5E: Ab1-18New)
Method: as §1

[6] = target: T2, FLT3/FLK2 antigen (as used for Table 6); assay: kinetic fit, method not stated (Table 6)

Binder	% POSITIVE CELLS [1]	MFI (IgC FITC) [1]	EC50 (read off the curve) [2]	MFI [3]	EC50 [4]	EC50 [5]	Kd [6]	koff [6]	kon [6]
MHC1695-3-30A (antibody, V domains shown, Mouse hybridoma monoclonal antibody) VH: QVTLKESGPGILQPSQTLSLTCSFSGFSLSTSHMGVGWIRQPSGKGLEWLLHILWNDSVYYNPALKSRLTISKDTYNKQVFLKIANVDTADTATYYCARIVYYGISYVGYFDVWGAGTTVTVSS VL: DIQMTQSPSSLSASLGERVSLTCRASQEISGYLSWLQQKPDGTIKRLIYAASTLNSGVPRRFSGSRSGSDYSLTISSLESEDFADYYCLQYASYPFTFGSGTKLEIK	48%	13000	~1 µg/mL	151000					
MHC1693-3-16HA (antibody, V domains shown, Mouse hybridoma monoclonal antibody; also called Ab3-16HA) VH: EVQLQQSGAELVRPGALVKLSCKGSGFNIKDYYIHWVKQRPEQGLEWIGRIDPENDITMYDPKFQGKASITADTSSNTAYLQLSSLTSEDTAVYYCARNGNFFAYWGQGTLVTVSA VL: not shown	57%	15200		206000					
MHC1696-2-8IA (antibody, V domains shown, Mouse hybridoma monoclonal antibody; also called A281A) VH: EIQLQQSGPELVKPGASVKVSCKASGYSFIDYNMYWVKQSHGKSLEWIGYINPYNGGTSNNQKFKDKATLTVDKSSSTAFMHLNSLTSEDSAVYYCARGTTGDYWGQGTTLTVSS VL: DTVLTQSPATLSVTPGDSVSLSCRASQSISNNLHWYQQKSHESPRLLIKYGFQSISGIPSRFSGSGSGTDFTLRINSVETEDFGMYFCQQTNSWPLTFGAGTKLELK	30%	11000	~0.1 µg/mL	128000	0.0902 µg/mL		0.0503 nM	0.000111 s⁻¹	2.21e+06 M⁻¹ s⁻¹

The remaining lines, values ahead:

% POSITIVE CELLS [1]	MFI (IgC FITC) [1]	EC50 (read off the curve) [2]	MFI [3]	EC50 [4]	EC50 [5]	Kd [6]	koff [6]	kon [6]	Binder
49%	13300	~0.06 µg/mL	119000	0.0701 µg/mL					MHC1692-1-23DA (antibody, V domains shown, Mouse hybridoma monoclonal antibody (detected with anti-mouse IgG); also called Ab1-23DA) VH: QVTLKESGPGILQPSQTLSLTCSFSGFSLSTSTMGVGWIRQPSGKGLEWLLHILWNDSKYYNPALKSRLTISKDTYNKQVFLKIANVDTADTATYYCARIVYYSTYVGYFDVWGAGTTVTVSS VL: DIQMTQSPSSLSASLGERVSLTCRASQEISGYLSWLQQKPDGTIKRLIYAASTLHSGVPKRFSGSRSGSDYSLTISRLESEDVADYYCLQYASYPFTFGSGTKLEIR
58%	14700	~0.08 µg/mL			0.0788 µg/mL	0.00576 nM	1.42e-05 s⁻¹	2.46e+06 M⁻¹ s⁻¹	MHC1694-1-18BA (antibody, V domains shown, Mouse hybridoma monoclonal antibody; also called Ab1-18New) VH: QVTLKESGPGILQPSQTLSLTCSFSGFSLSTSTMGVGWIRQPSGKGLEWLLHILWNDSKYYNPALKSRLTISKDTYNKQVFLKIANVDTADTATYYCARIVYYSTYVGYFDVWGAGTTVTVSS VL: DIQMTQSPSSLSASLGERVSLTCRASQEISGYLSWLQQKPDGTIKRLIYAASTLHSGVPKRFSGSRSGSDYSLTISRLESEDVADYYCLQYASYPFTFGSGTKLEIR
